This passage reports stoichiometry N and KI (inactivation) results from paper PMC9098870, “Integrated omics approach to unveil antifungal bacterial polyynes as acetyl-CoA acetyltransferase inhibitors” (Communications Biology, 2022).

The target of assay [1] is MasL-collimonin C complex (MasL covalently modified by collimonin C at Cys90) (Massilia sp. YMA4). Description: crystal structure; X-ray crystal structures of MasL, apo and after incubation with collimonin C or D; a tetramer in the asymmetric unit (space groups P1, P2_(1), P1).
Another assay addresses T1, MasL ([Empedobacter] haloabium, UniProt A0A915Q9D3).
T1 construct: gene E7V67_18950; recombinant, purified from E. coli; residues 1-394 described; tetramer in solution; reactive Cys90, His350, Cys380; tag details in supplement
Description: CoA release, fluorescent probe; progress curves, covalent inhibitor model. Format: biochemical. The source says: CoA release, fluorescent probe; progress curves, covalent inhibitor model on MasL

Assay [2] has as its target MasL (acetyl-CoA acetyltransferase of Massilia sp. YMA4), apo form (Massilia sp. YMA4). The assay can be described thus: crystal structure; X-ray crystal structures of MasL, apo and after incubation with collimonin C or D; a tetramer in the asymmetric unit (space groups P1, P2_(1), P1).
The target is the same in assay [3]. The assay can be described thus: not stated; oligomeric state of MasL in solution; method not given.
The target of assay [4] is MasL-collimonin D complex (MasL modified by collimonin D) (Massilia sp. YMA4). The assay can be described thus: crystal structure; X-ray crystal structures of MasL, apo and after incubation with collimonin C or D; a tetramer in the asymmetric unit (space groups P1, P2_(1), P1).

T1 sequence (A0A915Q9D3 entry or part of it): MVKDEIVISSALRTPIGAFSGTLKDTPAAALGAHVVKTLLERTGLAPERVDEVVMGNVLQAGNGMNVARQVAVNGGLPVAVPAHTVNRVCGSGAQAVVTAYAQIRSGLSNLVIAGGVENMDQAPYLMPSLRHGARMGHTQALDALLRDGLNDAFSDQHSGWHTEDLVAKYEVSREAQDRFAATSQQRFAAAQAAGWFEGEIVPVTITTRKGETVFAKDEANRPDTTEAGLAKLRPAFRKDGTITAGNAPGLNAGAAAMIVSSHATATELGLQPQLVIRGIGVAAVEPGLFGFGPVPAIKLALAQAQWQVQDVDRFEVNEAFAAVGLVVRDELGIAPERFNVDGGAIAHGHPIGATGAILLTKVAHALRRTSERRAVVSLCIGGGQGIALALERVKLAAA

Turning to “MasL-collimonin C complex (MasL covalently modified by collimonin C at Cys90) (enzyme)”, the stoichiometry N in assay [1] is 4.
For `C#CC#CC#C/C=C/CCC(O)CCCCC(=O)O` (centres unmarked) [compound 3, massilin A], the KI (inactivation) on MasL (covalent, adduct by mass spectrometry) came to 132 µM.
In the case of “MasL (acetyl-CoA acetyltransferase of Massilia sp. YMA4), apo form (enzyme)”, the stoichiometry N in assay [2] and in assay [3] was 4 each time.
The molecule “MasL-collimonin D complex (MasL modified by collimonin D) (enzyme)” showed a stoichiometry N in assay [4] of 4.
In turn, `C#CC#CC#C/C=C/CCCCCCCC(=O)O` [compound 5, massilin C] had a KI (inactivation) at MasL (covalent inhibitor model) of 228 µM.
`C#CC#CC#C/C=C/C[C@@H](O)[C@@H](O)CCCCC(=O)O` [compound 1, collimonin C] came in with a KI (inactivation) on MasL (covalent, irreversible S-alkylation of Cys90, competitive against acetyl-CoA, complex structure 1.66 Å) of 297 µM.
Regarding `C#CC#CC#C/C=C/C[C@@H](O)[C@H](O)CCCCC(=O)O` [compound 2, collimonin D], on MasL (covalent, irreversible S-alkylation of Cys90 (by MS), competitive against acetyl-CoA, complex structure 1.40 Å), the KI (inactivation) amounted to 42.8 µM.
